Data on two substances can be found in publication PMC5040716.

What is called Kd is the concentration at which binding is half-saturated.

For the data set, the system named is MgaSpn-His (Streptococcus pneumoniae). Put plainly: EMSA. Conditions: MgaSpn EMSA: 40 mM Tris-HCl pH 7.6, 1 mM DTT, 0.4 mM EDTA, 1-2% glycerol, 50 mM NaCl, 10 mM MgCl2, 500 ug/ml BSA, 2 nM DNA, ambient, 20 min; MgaSpn footprint: …. Background: In EMSA bound probe runs differently from free probe, usually more slowly.

hlyC 290-bp fragment registered a Kd of 75 nM.
The figure for hlyR 288-bp fragment is 50 nM.
